{"source": "IntAct's records for PubMed 35512704", "parents": {"B1": {"name": "Mothers against decapentaplegic homolog 4 (Homo sapiens), Q13485 (parent)", "chain": "MDNMSITNTPTSNDACLSIVHSLMCHRQGGESETFAKRAIESLVKKLKEKKDELDSLITAITTNGAHPSKCVTIQRTLDGRLQVAGRKGFPHVIYARLWRWPDLHKNELKHVKYCQYAFDLKCDSVCVNPYHYERVVSPGIDLSGLTLQSNAPSSMMVKDEYVHDFEGQPSLSTEGHSIQTIQHPPSNRASTETYSTPALLAPSESNATSTANFPNIPVASTSQPASILGGSHSEGLLQIASGPQPGQQQNGFTGQPATYHHNSTTTWTGSRTAPYTPNLPHHQNGHLQHHPPMPPHPGHYWPVHNELAFQPPISNHPAPEYWCSIAYFEMDVQVGETFKVPSSCPIVTVDGYVDPSGGDRFCLGQLSNVHRTEAIERARLHIGKGVQLECKGEGDVWVRCLSDHAVFVQSYYLDREAGRAPGDAVHKIYPSAYIKVFDLRQCHRQMQQQAATAQAAAAAQAAAVAGNIPGPGSVGGIAPAISLSAAAGIGVDDLRRLCILRMSFVKGWGPDYPRQSIKETPCWIEIHLHRALQLLDEVLHTMPIADPQPLD"}}, "data": [{"variants_of": "B1", "conditions": "with ros1_human ROS1, P08922", "values": [{"variant": "R361C", "effect of a mutation on the interaction": "with no effect"}]}, {"variants_of": "B1", "conditions": "with ks6b1_human RPS6KB1, P23443", "values": [{"variant": "R361C", "effect of a mutation on the interaction": "with no effect"}]}, {"variants_of": "B1", "conditions": "with runx1_human RUNX1, Q01196", "values": [{"variant": "R361C", "effect of a mutation on the interaction": "with no effect"}]}, {"variants_of": "B1", "conditions": "with ruvb1_human RUVBL1, Q9Y265", "values": [{"variant": "R361C", "effect of a mutation on the interaction": "with no effect"}]}, {"variants_of": "B1", "conditions": "with rxra_human RXRA", "values": [{"variant": "R361C", "effect of a mutation on the interaction": "with no effect"}]}, {"variants_of": "B1", "conditions": "with sdha_human SDHA", "values": [{"variant": "R361C", "effect of a mutation on the interaction": "with no effect"}]}, {"variants_of": "B1", "conditions": "with setb1_human SETDB1, Q15047", "values": [{"variant": "R361C", "effect of a mutation on the interaction": "with no effect"}]}, {"variants_of": "B1", "conditions": "with sf3b1_human SF3B1, O75533", "values": [{"variant": "R361C", "effect of a mutation on the interaction": "with no effect"}]}, {"variants_of": "B1", "conditions": "with skp2_human SKP2, Q13309", "values": [{"variant": "R361C", "effect of a mutation on the interaction": "with no effect"}]}, {"variants_of": "B1", "conditions": "with smad1_human SMAD1, Q15797", "values": [{"variant": "R361C", "effect of a mutation on the interaction": "with no effect"}]}, {"variants_of": "B1", "conditions": "with smad2_human SMAD2, Q15796", "values": [{"variant": "R361C", "effect of a mutation on the interaction": "with no effect"}]}, {"variants_of": "B1", "conditions": "with smad3_human SMAD3, P84022", "values": [{"variant": "R361C", "effect of a mutation on the interaction": "with no effect"}]}, {"variants_of": "B1", "conditions": "with smca4_human SMARCA4, P51532", "values": [{"variant": "R361C", "effect of a mutation on the interaction": "with no effect"}]}, {"variants_of": "B1", "conditions": "with snf5_human SMARCB1, Q12824", "values": [{"variant": "R361C", "effect of a mutation on the interaction": "with no effect"}]}, {"variants_of": "B1", "conditions": "with smo_human SMO", "values": [{"variant": "R361C", "effect of a mutation on the interaction": "with no effect"}]}, {"variants_of": "B1", "conditions": "with socs1_human SOCS1, O15524", "values": [{"variant": "R361C", "effect of a mutation on the interaction": "with no effect"}]}, {"variants_of": "B1", "conditions": "with sox10_human SOX10, P56693", "values": [{"variant": "R361C", "effect of a mutation on the interaction": "with no effect"}]}, {"variants_of": "B1", "conditions": "with sox2_human SOX2, P48431", "values": [{"variant": "R361C", "effect of a mutation on the interaction": "with no effect"}]}, {"variants_of": "B1", "conditions": "with sox3_human SOX3, P41225", "values": [{"variant": "R361C", "effect of a mutation on the interaction": "with no effect"}]}, {"variants_of": "B1", "conditions": "with sox4_human SOX4, Q06945", "values": [{"variant": "R361C", "effect of a mutation on the interaction": "with no effect"}]}, {"variants_of": "B1", "conditions": "with sox9_human SOX9, P48436", "values": [{"variant": "R361C", "effect of a mutation on the interaction": "with no effect"}]}, {"variants_of": "B1", "conditions": "with spop_human SPOP", "values": [{"variant": "R361C", "effect of a mutation on the interaction": "with no effect"}]}, {"variants_of": "B1", "conditions": "with src_human SRC", "values": [{"variant": "R361C", "effect of a mutation on the interaction": "with no effect"}]}, {"variants_of": "B1", "conditions": "with stat3_human STAT3, P40763", "values": [{"variant": "R361C", "effect of a mutation on the interaction": "with no effect"}]}, {"variants_of": "B1", "conditions": "with stk38_human STK38, Q15208", "values": [{"variant": "R361C", "effect of a mutation on the interaction": "with no effect"}]}, {"variants_of": "B1", "conditions": "with ksyk_human SYK", "values": [{"variant": "R361C", "effect of a mutation on the interaction": "with no effect"}]}, {"variants_of": "B1", "conditions": "with eloc_human ELOC", "values": [{"variant": "R361C", "effect of a mutation on the interaction": "with no effect"}]}, {"variants_of": "B1", "conditions": "with tfe2_human TCF3, P15923", "values": [{"variant": "R361C", "effect of a mutation on the interaction": "with no effect"}]}, {"variants_of": "B1", "conditions": "with tead1_human TEAD1, P28347", "values": [{"variant": "R361C", "effect of a mutation on the interaction": "with no effect"}]}, {"variants_of": "B1", "conditions": "with tead2_human TEAD2, Q15562", "values": [{"variant": "R361C", "effect of a mutation on the interaction": "with no effect"}]}, {"variants_of": "B1", "conditions": "with tead3_human TEAD3, Q99594", "values": [{"variant": "R361C", "effect of a mutation on the interaction": "with no effect"}]}, {"variants_of": "B1", "conditions": "with tgfr2_human TGFBR2, P37173", "values": [{"variant": "R361C", "effect of a mutation on the interaction": "with no effect"}]}, {"variants_of": "B1", "conditions": "with tnr14_human TNFRSF14, Q92956", "values": [{"variant": "R361C", "effect of a mutation on the interaction": "with no effect"}]}, {"variants_of": "B1", "conditions": "with tpx2_human TPX2, Q9ULW0", "values": [{"variant": "R361C", "effect of a mutation on the interaction": "with no effect"}]}, {"variants_of": "B1", "conditions": "with trrap_human TRRAP", "values": [{"variant": "R361C", "effect of a mutation on the interaction": "with no effect"}]}, {"variants_of": "B1", "conditions": "with tsc2_human TSC2, P49815", "values": [{"variant": "R361C", "effect of a mutation on the interaction": "with no effect"}]}, {"variants_of": "B1", "conditions": "with tshr_human TSHR", "values": [{"variant": "R361C", "effect of a mutation on the interaction": "with no effect"}]}, {"variants_of": "B1", "conditions": "with wt1_human WT1, P19544", "values": [{"variant": "R361C", "effect of a mutation on the interaction": "with no effect"}]}, {"variants_of": "B1", "conditions": "with wwtr1_human WWTR1, Q9GZV5", "values": [{"variant": "R361C", "effect of a mutation on the interaction": "with no effect"}]}, {"variants_of": "B1", "conditions": "with xpo1_human XPO1, O14980", "values": [{"variant": "R361C", "effect of a mutation on the interaction": "with no effect"}]}, {"variants_of": "B1", "conditions": "with 1433b_human YWHAB", "values": [{"variant": "R361C", "effect of a mutation on the interaction": "with no effect"}]}, {"variants_of": "B1", "conditions": "with 1433e_human YWHAE", "values": [{"variant": "R361C", "effect of a mutation on the interaction": "with no effect"}]}, {"variants_of": "B1", "conditions": "with 1433z_human YWHAZ", "values": [{"variant": "R361C", "effect of a mutation on the interaction": "with no effect"}]}, {"variants_of": "B1", "conditions": "with gata2_human GATA2, P23769", "values": [{"variant": "R361C", "effect of a mutation on the interaction": "decreasing interaction strength"}]}, {"variants_of": "B1", "conditions": "with smad3_human SMAD3, P84022", "remark": "another data set of the same source", "values": [{"variant": "R361C", "effect of a mutation on the interaction": "decreasing interaction strength"}]}, {"variants_of": "B1", "conditions": "with cdk6_human CDK6, Q00534", "values": [{"variant": "R361C", "effect of a mutation on the interaction": "decreasing interaction strength"}]}]}
